B1: Twister Ribozyme (parent)
chain: AACACUGCCAAUGCCGGUCCCAAGCCCGGAUAAAAGUGGAGGGGGCGG

Variants of: B1
Test: self-cleavage, relative activity (ratio to wild type); higher = more cleavage; co-transcriptional

Row | Variant | self-cleavage
1 | U18C G44C | 0.49
2 | G16C C20A | 0.0672
3 | G16C C20G | 0.104
4 | U18C | 0.664
5 | U18A | 0.667
6 | U18G | 0.0785
7 | G17U G48U | 0.316
8 | G17U G48A | 0.316
9 | G17U G48C | 0.467
10 | U18A G41U | 0.125
11 | U18A G41C | 0.0769
12 | G16C C27U | 0.854
13 | G16U A32G | 1.02
14 | G16U A32U | 1
15 | U18C A33C | 0.386
16 | G17A G48A | 0.661
17 | G17A G39C | 0.105
18 | G17A G39U | 0.165
19 | U18C A34U | 0.149
20 | U18C A34C | 0.0598
21 | U18C A34G | 0.142
22 | G17C A34U | 0.0853
23 | G17C A34G | 0.112
24 | G17A A30G | 0.615

Row | Variant | self-cleavage
25 | G17A A30U | 0.695
26 | G16C C21U | 0.0834
27 | G16C C21G | 0.0586
28 | G17U C19A | 0.0777
29 | G17C G36A | 0.0801
30 | G16U | 1.07
31 | G17A C27G | 0.243
32 | G17A C27U | 0.403
33 | G16U G41A | 0.278
34 | G17U A34C | 0.0829
35 | G17U A34G | 0.182
36 | G17C G45A | 0.132
37 | U18G A30G | 0.0594
38 | U18G A30C | 0.14
39 | U18C G45U | 0.228
40 | G17C A35U | 0.138
41 | G16U G42U | 0.166
42 | G16U G42A | 0.26
43 | G17U C26G | 0.637
44 | G17U C26U | 0.458
45 | G17U G43C | 0.0878
46 | G17U G43A | 0.13
47 | G16C A40G | 0.135
48 | G17A G41C | 0.164

Row | Variant | self-cleavage
49 | G16U G45C | 0.554
50 | G16U G45U | 0.819
51 | G17A C20U | 0.373
52 | G17A G42A | 0.107
53 | G17A C25A | 0.164
54 | G17A C25G | 0.0728
55 | G17A C25U | 0.255
56 | U18A A22G | 0.0469
57 | U18A A22C | 0.485
58 | G16U G28A | 0.641
59 | G16U G28C | 1.02
60 | G17A U37C | 0.142
61 | G17A U37G | 0.175
62 | G16U U31G | 1.04
63 | G16C G42C | 0.121
64 | G16C G42A | 0.139
65 | G16C G42U | 0.115
66 | U18A G44U | 0.543
67 | U18A C25A | 0.0777
68 | U18A C25G | 0.0662
69 | U18C C21U | 0.0707
70 | U18C C21A | 0.0881
71 | G17U G36A | 0.124
72 | U18G C21U | 0.0712

Row | Variant | self-cleavage
73 | U18C G38U | 0.261
74 | G17A G28U | 0.258
75 | G17U A40C | 0.123
76 | G17U A40G | 0.0578
77 | U18C U37C | 0.0756
78 | U18C U37G | 0.155
79 | U18A G38U | 0.144
80 | U18A G48A | 0.279
81 | G16C C46G | 0.262
82 | G16C C46A | 0.693
83 | G17C U18C | 0.1
84 | G17U A22C | 0.406
85 | G17U A22U | 0.161
86 | G17U U18A | 0.148
87 | G17U U18G | 0.106
88 | U18G A34G | 0.079
89 | U18A C26A | 0.313
90 | U18A C26U | 0.158
91 | U18C C27U | 0.182
92 | U18C C27A | 0.0979
93 | U18G C26A | 0.0682
94 | U18G C26U | 0.0716
95 | G17A U31C | 0.746
96 | G17A U31A | 0.715

Row | Variant | self-cleavage
97 | U18A G36U | 0.172
98 | U18A G36C | 0.0768
99 | U18A G36A | 0.111
100 | G16C G29U | 0.194
101 | G17U G24C | 0.0691
102 | G17U G24U | 0.0893
103 | G17C G47C | 0.142
104 | G17C G47A | 0.0753
105 | G16U U37C | 0.261
106 | G16C G24C | 0.0655
107 | G16C G24A | 0.0685
108 | G17U U37G | 0.12
109 | G17U U37A | 0.092
110 | G16U C46G | 0.963
111 | G16U G47A | 0.378
112 | G16U G47U | 0.653
113 | G17C C25U | 0.0911
114 | G17C C25A | 0.0882
115 | U18A U37A | 0.0711
116 | U18A U37G | 0.137
117 | U18C G29U | 0.27
118 | U18C G29C | 0.0613
119 | U18G A22C | 0.0631
120 | U18A A40C | 0.133

Row | Variant | self-cleavage
121 | U18A A40U | 0.147
122 | G16C G45C | 0.249
123 | G16C G45U | 0.379
124 | G16C G45A | 0.161
125 | G17A A35U | 0.869
126 | G17C G38U | 0.073
127 | U18G A35U | 0.0933
128 | U18G A35G | 0.0984
129 | U18G A32C | 0.0661
130 | U18G A32U | 0.0793
131 | G17A G24A | 0.118
132 | G17C U31A | 0.138
133 | G16C U18C | 0.114
134 | G16C U18A | 0.336
135 | U18C G42U | 0.0957
136 | U18C G42A | 0.0575
137 | G17C C27U | 0.0804
138 | G17C C27G | 0.195
139 | G17U C21U | 0.0901
140 | G16U G17C | 0.105
141 | U18A G42A | 0.104
142 | U18A G42C | 0.215
143 | G17C A32U | 0.109
144 | G17C G29A | 0.0678

Row | Variant | self-cleavage
145 | G17C G29U | 0.0973
146 | G16C C19U | 0.461
147 | G16C C19A | 0.165
148 | G16U U18G | 0.0727
149 | G16U U18A | 0.605
150 | G17U C27U | 0.207
151 | G17U C27G | 0.424
152 | G17A G44C | 0.733
153 | G17A G44A | 0.671
154 | G17A A33G | 0.451
155 | G16C G39C | 0.119
156 | G16C G39A | 0.28
157 | G17A A34G | 0.211
158 | G17A A34U | 0.137
159 | G16U C27A | 0.908
160 | U18C A32U | 0.464
161 | U18A A33G | 0.203
162 | U18A A33U | 0.391
163 | G16C G17U | 0.174
164 | G16C G17C | 0.0907
165 | U18C G36A | 0.158
166 | U18C G36U | 0.0651
167 | U18A G29A | 0.41
